{
  "source": "paper PMC5356271",
  "about": "“Identification of a tripartite interaction between the N-terminus of HIV-1 Vif and CBFβ that is critical for Vif function” (Retrovirology, 2017)",
  "key": {"[1]": {"target": "T1, Flag-CBFβ I55D (UniProt Q13951 1-170, I55D)", "T1 construct": "source: 293T, transfected, in lysate", "T1 sequence": "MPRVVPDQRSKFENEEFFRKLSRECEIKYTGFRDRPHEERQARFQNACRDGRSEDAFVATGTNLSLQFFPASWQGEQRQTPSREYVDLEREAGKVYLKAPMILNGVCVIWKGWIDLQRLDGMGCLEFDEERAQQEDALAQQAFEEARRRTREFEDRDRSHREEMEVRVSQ", "experiment": "co-IP; 293T cells co-transfected with Flag-CBFβ (4 μg) and untagged Vif (4 μg); lysates after 48 h; anti-Flag immunoprecipitation; co-precipitated Vif quantified by western blot (Odyssey) relative to wild type set to 100%; for the CBFβ mutants endogenous CBFβ was first knocked down by siRNA against the 3' UTR (Fig. 5, 7) and cells were treated with MG132 (5 μM, 16 h) in Fig. 7", "details": "partners not purified"}, "[2]": {"target": "T2, Flag-CBFβ F68D (UniProt Q13951 1-170, F68D)", "T2 construct": "source: 293T, transfected, in lysate", "T2 sequence": "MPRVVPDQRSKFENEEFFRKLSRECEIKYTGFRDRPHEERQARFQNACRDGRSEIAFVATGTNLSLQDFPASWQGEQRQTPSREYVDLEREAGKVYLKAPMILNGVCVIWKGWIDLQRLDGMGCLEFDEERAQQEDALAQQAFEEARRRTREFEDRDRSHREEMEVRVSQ", "experiment": "co-IP; 293T cells co-transfected with Flag-CBFβ (4 μg) and untagged Vif (4 μg); lysates after 48 h; anti-Flag immunoprecipitation; co-precipitated Vif quantified by western blot (Odyssey) relative to wild type set to 100%; for the CBFβ mutants endogenous CBFβ was first knocked down by siRNA against the 3' UTR (Fig. 5, 7) and cells were treated with MG132 (5 μM, 16 h) in Fig. 7", "details": "partners not purified"}, "[3]": {"target": "T3, Flag-CBFβ I55A–F68D (UniProt Q13951 1-170, I55A | F68D)", "T3 construct": "source: 293T, transfected, in lysate", "T3 sequence": "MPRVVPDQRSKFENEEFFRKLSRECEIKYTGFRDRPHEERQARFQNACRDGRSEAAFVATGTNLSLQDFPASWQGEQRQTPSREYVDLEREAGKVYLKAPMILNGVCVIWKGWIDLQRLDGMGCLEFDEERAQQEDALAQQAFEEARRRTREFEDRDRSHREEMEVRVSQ", "experiment": "co-IP; 293T cells co-transfected with Flag-CBFβ (4 μg) and untagged Vif (4 μg); lysates after 48 h; anti-Flag immunoprecipitation; co-precipitated Vif quantified by western blot (Odyssey) relative to wild type set to 100%; for the CBFβ mutants endogenous CBFβ was first knocked down by siRNA against the 3' UTR (Fig. 5, 7) and cells were treated with MG132 (5 μM, 16 h) in Fig. 7", "details": "partners not purified"}, "[4]": {"target": "T4, Flag-CBFβ I55D–F68D (UniProt Q13951 1-170, I55D | F68D)", "T4 construct": "source: 293T, transfected, in lysate", "T4 sequence": "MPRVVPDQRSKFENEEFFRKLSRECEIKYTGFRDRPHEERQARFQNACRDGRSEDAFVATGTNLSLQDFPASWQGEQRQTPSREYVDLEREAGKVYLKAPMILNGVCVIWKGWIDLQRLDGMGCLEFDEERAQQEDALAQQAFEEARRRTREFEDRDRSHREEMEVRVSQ", "experiment": "co-IP; 293T cells co-transfected with Flag-CBFβ (4 μg) and untagged Vif (4 μg); lysates after 48 h; anti-Flag immunoprecipitation; co-precipitated Vif quantified by western blot (Odyssey) relative to wild type set to 100%; for the CBFβ mutants endogenous CBFβ was first knocked down by siRNA against the 3' UTR (Fig. 5, 7) and cells were treated with MG132 (5 μM, 16 h) in Fig. 7", "details": "partners not purified"}, "[5]": {"target": "T5, Flag-CBFβ (core-binding factor β), wild type (UniProt Q13951 1-170)", "T5 sequence": "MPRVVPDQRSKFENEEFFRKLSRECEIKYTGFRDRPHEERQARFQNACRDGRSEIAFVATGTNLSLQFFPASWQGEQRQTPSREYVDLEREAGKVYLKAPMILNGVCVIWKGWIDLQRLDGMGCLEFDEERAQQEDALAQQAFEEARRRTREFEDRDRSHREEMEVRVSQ", "experiment": "cell-based or functional assay"}, "[6]": {"target": "T5, Flag-CBFβ (core-binding factor β), wild …", "experiment": "co-IP; 293T cells co-transfected with Flag-CBFβ (4 μg) and untagged Vif (4 μg); lysates after 48 h; anti-Flag immunoprecipitation; co-precipitated Vif quantified by western blot (Odyssey) relative to wild type set to 100%; for the CBFβ mutants endogenous CBFβ was first knocked down by siRNA against the 3' UTR (Fig. 5, 7) and cells were treated with MG132 (5 μM, 16 h) in Fig. 7", "details": "partners not purified"}},
  "data": [
    {"binder": "HIV-1 Vif, wild type (natural protein, HIV-1 Vif; Untagged; also called WT Vif; source: 293T, transfected, in lysate) not shown", "values": [
      {"measurement": "binding efficiency relative to CBFβ-WT (100%)", "setting": "[1]", "result": "~15", "unit": "%"},
      {"measurement": "binding efficiency relative to CBFβ-WT (100%)", "setting": "[2]", "result": "~28", "unit": "%"},
      {"measurement": "binding efficiency relative to CBFβ-WT (100%)", "setting": "[3]", "result": "~8", "unit": "%"},
      {"measurement": "binding efficiency relative to CBFβ-WT (100%)", "setting": "[4]", "result": "~8", "unit": "%"}
    ]},
    {"binder": "HIV-1 Vif W11A (natural protein) not shown", "values": [
      {"measurement": "infectivity of virus produced with A3G in CBFβ-depleted (siRNA) 293T cells, relative to WT Vif with control siRNA (100%)", "setting": "[5]", "result": 4, "unit": "%"}
    ]},
    {"binder": "HIV-1 Vif V7A–M8A (natural protein) not shown", "values": [
      {"measurement": "infectivity of virus produced with A3G in CBFβ-depleted (siRNA) 293T cells, relative to WT Vif with control siRNA (100%)", "setting": "[5]", "result": 8, "unit": "%"}
    ]},
    {"binder": "HIV-1 Vif 9IVW11 > A3 (triple-alanine substitution mutant) (natural protein, HIV-1 Vif; Untagged; also called 9IVW11 > 3A; source: 293T, transfected, in lysate) not shown", "values": [
      {"measurement": "binding efficiency relative to WT Vif (100%)", "setting": "[6]", "result": 0.3, "unit": "%"}
    ]},
    {"binder": "HIV-1 Vif 5WQVM8 > A4 (quadruple-alanine substitution mutant) (natural protein, HIV-1 Vif; Untagged; also called 5WQVM8 > 4A; source: 293T, transfected, in lysate) not shown", "values": [
      {"measurement": "binding efficiency relative to WT Vif (100%)", "setting": "[6]", "result": 2, "unit": "%"}
    ]}
  ]
}
